# Source: US20210054067A1 (ALETHIA BIOTHERAPEUTICS, published 2021)
# Positions count from the first letter of the chain named.
# B1: 3A4 chimeric anti-KAAG1 antibody (mouse-human chimeric IgG1) (antibody, V domains shown)
# VH: QIQLVQSGPEMVKPGASVKMSCKASGYTFTDDYMSWVKQSHGKSLEWIGDINPYNGDTNYNQKFKGKAILTVDKSSSTAYMQLNSLTSEDSAVYYCARDPGAMDYWGQGTSVTVSS
# VL: DVVMTQTPLSLAVSLGDQASISCRSSQSLLHSNGNTYLEWYLQKPGQSPKLLIHTVSNRFSGVPDRFSGSGSGTDFTLKISRVEAEDLGVYYCFQGSHVPLTFGAGTRLELKR
# notes: also called chimeric 3A4; murine 3A4
# B2: 3D3 anti-KAAG1 antibody (chimeric 3D3) (antibody, V domains shown)
# VH: EVQLQQSVAELVRPGASVTLSCKASGYIFTDYEIHWVKQTPVHGLEWIGVIDPETGNTAFNQKFKGKATLTADISSSTAYMELSSLTSEDSAVYYCMGYSDYWGQGTTLTVSS
# VL: DIVMTQSPSSLAVSIGQKVTMNCKSSQSLLNSNFQKNFLAWYQQKPGQSPKLLIYFASTRESSIPDRFIGSGSGTDFTLTISSVQAEDLADYFCQQHYSTPLTFGAGTKLELK
# B3: humanized 3A4 antibody Lh1Hh2 (antibody, human IgG1, kappa, V domains shown)
# VH: QIQLVQSGAEVKKPGASVKVSCKASGYTFTDDYMSWVRQAPGQGLEWMGDINPYNGDTNYNQKFKGRVTITADKSTSTAYMELSSLRSEDTAVYYCARDPGAMDYWGQGTLVTVSS
# VL: DIVMTQTPLSLPVTPGEPASISCRSSQSLLHSNGNTYLEWYLQKPGQSPQLLIYTVSNRFSGVPDRFSGSGSGTDFTLKISRVEAEDVGVYYCFQGSHVPLTFGQGTKLEIKR
# notes: human IgG1 kappa
# B4: humanized 3A4 antibody Lh1Hh3 (antibody, human IgG1, kappa, V domains shown)
# VH: B3 VH with M48I, V68A, I70L, A72V
# VL: B3 VL
# notes: human IgG1 kappa
# B5: humanized 3A4 antibody Lh1Hh1 (antibody, human IgG1, kappa, V domains shown)
# VH: B3 VH with I2V, K74T
# VL: B3 VL
# notes: 100% humanized frameworks; human IgG1 kappa; also called H1L1
# B6: humanized 3A4 antibody Lh1Hh4 (antibody, human IgG1, kappa, V domains shown)
# VH: B3 VH with R38K, M48I, R67K, V68A, I70L, A72V
# VL: B3 VL
# notes: human IgG1 kappa
# B7: humanized 3A4 antibody Lh2Hh2 (antibody, human IgG1, kappa, V domains shown)
# VH: B3 VH
# VL: B3 VL with I2V, Q50K
# notes: human IgG1 kappa
# B8: humanized 3A4 antibody Lh2Hh3 (antibody, human IgG1, kappa, V domains shown)
# VH: B3 VH with M48I, V68A, I70L, A72V
# VL: B3 VL with I2V, Q50K
# notes: human IgG1 kappa
# B9: humanized 3A4 antibody Lh2Hh4 (antibody, human IgG1, kappa, V domains shown)
# VH: B3 VH with R38K, M48I, R67K, V68A, I70L, A72V
# VL: B3 VL with I2V, Q50K
# notes: human IgG1 kappa; 10 mouse framework residues retained; also called H4L2
# B10: humanized 3A4 antibody Lh2Hh1 (antibody, human IgG1, kappa, V domains shown)
# VH: B3 VH with I2V, K74T
# VL: B3 VL with I2V, Q50K
# notes: human IgG1 kappa
# B11: 3G10 anti-KAAG1 antibody (antibody, V domains shown)
# VH: EIQLQQSGPELVKPGASVKISCKASGYTFTDNYMNWVKQSHGKSLEWIGDINPYYGTTTYNQKFKGKATLTVDKSSRTAYMELRGLTSEDSAVYYCARDDWFDYWGQGTLVTVSA
# VL: DVLMTQTPRSLSVSLGDQASISCRSSQSLLHSNGNTYLEWYLQKPGQPPKVLIYKVSNRFSGVPDRFSGSGSGTDFTLKISGVEAEDLGVYYCFQGSHVPLTFGAGTKLELK
# What was measured:
# [1] = biological target: T1, Fc-KAAG1 truncated mutant ending at amino acid 35 of KAAG1 (human, not fully specified; biotinylated); test: ELISA: biotinylated Fc-KAAG1 1-35 on streptavidin plate, OD450
# T1 construct: also called KAAG1 truncated Fc-fusion (1-35); not shown: Fc part from vector pYD5
# T1 chain: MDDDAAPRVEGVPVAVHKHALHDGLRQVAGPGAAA
# Procedure: (§1) The expression and purification of human recombinant KAAG1 as an Fc fusion protein is found in PCT/CA2009/001586. To carry out the binding of Fc-KAAG1 to the antibody preparation, the Fc-KAAG1 was biotinylated with NHS-biotin (Pierce, Rockford, Ill.) and 10 ng/well was coated in a streptavidin 96-well plate for 1 h at room temperature. Purified chimeric 3A4 was added at increasing concentrations and incubated at room temperature for 30 minutes. Bound antibody was detected with HRP-conjugated human anti-kappa light chain antibody in the presence of TMB liquid substrate (Sigma-Aldrich Canada Ltd., Oakville, ON) and readings were conducted at 450 nm in microtiter plate reader. […] When the control unrelated IgG was incubated with the recombinant KAAG1, no binding activity was observed, even at the very highest concentration. […] The binding of 3A4 was compared to the binding of the chimeric 3D3 (described in Tremblay and Filion (2009)), that has different epitope specificity (see Example 2). The binding activity of 3A4 is very similar to 3D3 in this type of assay (see FIG. 1).
# (§2) Based on the teachings of Tremblay and Filion (2009), it was known that other antibodies interacted with specific regions of recombinant KAAG1. Thus, anti-KAAG1 antibody 3C4, 3D3, and 3G10 interacted with the regions 1-35, 36-60, and 61-84 of KAAG1, respectively. […]
# [2] = biological target: T2, recombinant human KAAG1 (purified protein) (human, UniProt Q9UBP8 1-84, limits assumed); test: SPR (ProteOn XPR36), antibody captured on anti-human IgG Fc, KAAG1 as analyte, 25 C; parent LcHc (chimeric 3A4)
# T2 construct: also called gel filtration purified KAAG1
# T2 sequence: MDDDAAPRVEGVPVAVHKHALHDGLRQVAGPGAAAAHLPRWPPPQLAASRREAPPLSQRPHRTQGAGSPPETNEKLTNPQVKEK
# Procedure: (§3) Immediately after the activation, a 13 μg/mL solution of anti-human IgG Fc fragment specific in 10 mM NaOAc pH 4.5 was injected in the analyte direction at a flow rate of 25 μL/min until approximately 8000 resonance units (RUs) were immobilized. Remaining active groups were quenched by a 300 s injection of 1M ethanolamine at 30 μL/min in the analyte direction, and this also ensures mock-activated interspots are created for blank referencing. The screening of the 3A4 variants for binding to KAAG1 occurred in two steps: an indirect capture of 3A4 variants from cell supernatant onto the anti-human IgG Fc fragment specific surface in the ligand direction (vertical) followed by a KAAG1 injection in the analyte direction. Firstly, one buffer injection for 30 s at 100 uL/min in the ligand direction was used to stabilize the baseline. […] Four to five 3A4 variants along with wild-type 3A4 were simultaneously injected in individual ligand channels for 240 s at flow 25 μL/min. […] The first ligand channel was left empty to use as a blank control if required. […]
# (§4) Sensorgrams were aligned and double-referenced using the buffer blank injection and interspots, and the resulting sensorgrams were analyzed using ProteOn Manager software v3.0.
# [3] = biological target: T2, recombinant human KAAG1 (purified …); test: surface plasmon resonance (told in the summary); summary statement; form of 3A4 and SPR set-up not stated
# [4] = biological target: T3, KAAG1 on the surface of cancer cells (SKOV-3, TOV-21G ovarian cancer cells) (human, UniProt Q9UBP8 31-84); test: flow cytometry on KAAG1-expressing cancer cells (told in the summary)
# T3 construct: endogenous KAAG1 of human cancer cell lines; Also used for the Triton X-100 permeabilized SKOV-3 cells (named in the assay field); also called KAAG1 antigen; cell surface KAAG1
# T3 sequence: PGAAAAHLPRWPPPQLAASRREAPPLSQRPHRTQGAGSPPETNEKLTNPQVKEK
# [5] = biological target: T4, Fc-KAAG1 truncated mutant ending at amino acid 60 of KAAG1 (human, UniProt Q9UBP8 1-60, biotinylated); test: ELISA: biotinylated Fc-KAAG1 1-60 on streptavidin plate, OD450
# T4 construct: also called KAAG1 truncated Fc-fusion (1-60); not shown: Fc part from vector pYD5
# T4 sequence: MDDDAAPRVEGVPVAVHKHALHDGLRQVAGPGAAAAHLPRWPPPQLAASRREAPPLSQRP
# Procedure: as §1, §2
# [6] = biological target: T2, recombinant human KAAG1 (purified …); test: surface plasmon resonance (told in the summary)
# [7] = biological target: T2, recombinant human KAAG1 (purified …); test: SPR as above; KD relative to LcHc
# Procedure: Immediately after the activation, a 13 μg/mL solution of anti-human IgG Fc fragment specific in 10 mM NaOAc pH 4.5 was injected in the analyte direction at a flow rate of 25 μL/min until approximately 8000 resonance units (RUs) were immobilized. Remaining active groups were quenched by a 300 s injection of 1M ethanolamine at 30 μL/min in the analyte direction, and this also ensures mock-activated interspots are created for blank referencing. The screening of the 3A4 variants for binding to KAAG1 occurred in two steps: an indirect capture of 3A4 variants from cell supernatant onto the anti-human IgG Fc fragment specific surface in the ligand direction (vertical) followed by a KAAG1 injection in the analyte direction. Firstly, one buffer injection for 30 s at 100 uL/min in the ligand direction was used to stabilize the baseline. […] Four to five 3A4 variants along with wild-type 3A4 were simultaneously injected in individual ligand channels for 240 s at flow 25 μL/min. […] The first ligand channel was left empty to use as a blank control if required. This 3A4 capture step was immediately followed by two buffer injections in the analyte direction to stabilize the baseline, and then the gel filtration purified KAAG1 was injected. For a typical screen, five KAAG1 concentrations (8, 2.66, 0.89, 0.29, and 0.098 nM) and buffer control were simultaneously injected in individual analyte channels at 50 μL/min for 120 s with a 600 s dissociation phase, resulting in a set of binding sensorgrams with a buffer reference for each of the captured 3A4 variants. The anti-human IgG Fc fragment specific—3A4 complexes were regenerated by a 18 s pulse of 0.85% phosphoric acid for 18 s at 100 μL/min to prepare the anti-human IgG Fc fragment specific surface for the next injection cycle.
# as §4
# [8] = biological target: T2, recombinant human KAAG1 (purified …); test: SPR (ProteOn XPR36)
# Procedure: as §3, with “Remaining” for “Immediately after the activation, a 13 μg/mL solution of anti-human IgG Fc fragment specific in 10 mM NaOAc pH 4.5 was injected in the analyte direction at a flow rate of 25 μL/min until approximately 8000 resonance units (RUs) were immobilized. Remaining”
# Sensorgrams were aligned and double-referenced using the buffer blank injection and interspots, and the resulting sensorgrams were analyzed using ProteOn Manager software v3.0. The kinetic and affinity values were determined by fitting the referenced sensorgrams to the 1:1 Langmuir binding model using local Rₘₐₓ, and affinity constants (KD M) were derived from the resulting rate constants (kd s⁻¹/kₐ M⁻¹s⁻¹).
binder,measurement,setting,value
B1,binding result,[1],no binding (tested: not given on the sheet)
same,Kd,[2],0.057 nM
same,Kd,[3],~0.057 nM
same,fold less antibody required compared to 3G10,[4],~10 fold
same,binding result,[5],no binding (tested: not given on the sheet)
B2,Kd,[6],> 200 nM
same,fold lower affinity than 3A4,[6],20 fold
B3,Fold diff.,[7],13.2 fold
B4,Fold diff.,[7],9.3 fold
B5,fold difference in binding affinity against the best variant H4L2,[8],4 fold
same,Fold diff.,[7],29.6 fold
B6,Fold diff.,[7],9.3 fold
B7,Fold diff.,[7],15.3 fold
B8,Fold diff.,[7],14.3 fold
B9,Fold diff.,[7],6.4 fold
B10,Fold diff.,[7],21.3 fold
B11,Kd,[6],> 200 nM
same,fold lower affinity than 3A4,[6],20 fold
